Data on two molecules can be found in patent EP4705353A2 (dated 2026).

The target in assay [1] is T1, human B7H3-Fc recombinant protein (human, UniProt Q5ZPR3 29-466, limits assumed).
T1 construct: Recombinant Fc fusion; also called human B7H3-Fc (full length); B7H3 recombinant protein; not shown: Fc part
T1 sequence (looked up): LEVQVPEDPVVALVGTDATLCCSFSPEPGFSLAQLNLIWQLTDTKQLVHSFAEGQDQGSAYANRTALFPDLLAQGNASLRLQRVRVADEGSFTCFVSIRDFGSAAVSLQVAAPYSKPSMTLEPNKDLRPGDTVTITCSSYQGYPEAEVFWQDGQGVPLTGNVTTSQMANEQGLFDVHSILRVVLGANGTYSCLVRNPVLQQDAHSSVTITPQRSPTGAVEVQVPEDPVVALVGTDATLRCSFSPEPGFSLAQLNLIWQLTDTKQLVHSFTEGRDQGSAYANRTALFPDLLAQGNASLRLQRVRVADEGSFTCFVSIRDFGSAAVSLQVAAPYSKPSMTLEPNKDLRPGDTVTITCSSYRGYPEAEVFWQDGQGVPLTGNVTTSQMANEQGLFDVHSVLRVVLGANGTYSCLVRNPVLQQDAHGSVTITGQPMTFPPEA
Briefly: ELISA, human B7H3-Fc coated at 2 ug/mL, anti-Flag HRP detection; footnote of Table 5: NA: low binding to B7H3 protein. In general terms: In an ELISA, binding on a coated surface is turned into a signal by an enzyme label.

In assay [2] the target is T2, full length human B7H3 expressed on CHOK1 cells (human, UniProt Q5ZPR3 29-534).
T2 construct: whole, on cells; also called B7H3/CHOK1; B7H3/CHOK1 full length; not shown: C-terminal flag and Myc tags from the pCMV6-Entry vector
T2 sequence (looked up): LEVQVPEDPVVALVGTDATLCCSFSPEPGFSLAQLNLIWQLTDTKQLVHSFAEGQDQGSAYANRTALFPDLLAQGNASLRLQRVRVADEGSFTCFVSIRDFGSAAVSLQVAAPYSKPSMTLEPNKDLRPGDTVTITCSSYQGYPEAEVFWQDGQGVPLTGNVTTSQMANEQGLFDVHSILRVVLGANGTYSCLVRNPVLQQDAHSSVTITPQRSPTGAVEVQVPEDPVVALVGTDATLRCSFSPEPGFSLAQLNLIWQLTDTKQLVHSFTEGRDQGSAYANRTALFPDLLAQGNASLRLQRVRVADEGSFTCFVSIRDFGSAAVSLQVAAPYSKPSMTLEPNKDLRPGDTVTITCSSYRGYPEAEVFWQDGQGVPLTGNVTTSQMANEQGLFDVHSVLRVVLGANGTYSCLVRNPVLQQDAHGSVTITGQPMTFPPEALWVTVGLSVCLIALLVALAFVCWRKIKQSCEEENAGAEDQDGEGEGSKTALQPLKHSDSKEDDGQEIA
Briefly: FACS, VH titrated with or without 20 nM Enoblituzumab as competitor. For orientation: A flow cytometer gives signals particle by particle.

B1: BH-03 anti-B7H3 VH antibody (VHH)
VH: QVQLVESGGGVVQPGRSPRLSCAASGFTFSSYAMHWVRQAPGKGLEWVAVISYDGSNKYYADSVKGRFTISRDNSKNTLYLQMNSLRAEDTAVYYCARDLARLVAGLDYWGQGTLVTVSS
notes: Human heavy chain-only (VH) antibody made in E. coli with a C-terminal flag and 6xHis tag; not shown: C-terminal flag and 6xHis tag
Turning to B1, the binding result in assay [1] and in assay [2] was “binds” in each case.

B2: BH-01 anti-B7H3 VH antibody (VHH)
VHH: QVTLKESGPTVVNPTQTLTLTCTFSGFSLTTSPVGVGWLRQPPGQALEWLALIYWDDDKRYSPSLKSRLTITKNTSRNQVVLTMMNMDPVDTATYYCAHRVYYTGNWDGGSFDYWGQGTLVTVSS
notes: Human heavy chain-only (VH) antibody made in E. coli with a C-terminal flag and 6xHis tag; also called BH-1; not shown: C-terminal flag and 6xHis tag
B2: in assay [2], the binding result is “binds”.
